B1: Lysozyme C, P61626 (parent)
chain: MKALIVLGLVLLSVTVQGKVFERCELARTLKRLGMDGYRGISLANWMCLAKWESGYNTRATNYNAGDRSTDYGIFQINSRYWCNDGKTPGAVNACHLSCSALLQDNIADAVACAKRVVRDPQGIRAWVAWRNRCQNRDVRQYVQGCGV

Variants of: B1
Conditions: Homo sapiens, pH 3, Thermal, DSC, glycine-HCl 0.05 M, reversible: yes, structure 1LZ1, whole UniProt chain shown; for ddG of mutation (higher = less stable) / unfolding enthalpy (calorimetric) / unfolding free energy: 57 °C

| Variant | ddG of mutation (higher = less stable) | unfolding enthalpy (calorimetric) | unfolding free energy | Tm | change of melting temperature, mutant - wild type (higher = more stable) |
| --- | --- | --- | --- | --- | --- |
| MKALIVLGLVLLSVTVQGKVFERCELARTLKRLGMDGYRGISLANWMCLAKWESGYNTRATNYNAGDRSTDYGIFQINSRYWCNDGKTPGAVNAAHLSCSALLQDNIADAVAAAKRVVRDPQGIRAWVAWRNRCQNRDVRQYVQGCGV [C95A C113A] | 19.2 kJ/mol | 380 kJ/mol | 0 kJ/mol | 56.9 °C | -14.5 °C |
| MKALIVLGLVLLSVTVQGKVFERCELARTLKRLGMDGYRGISLANWMCLAKWESGYNTRATNYNAGDRSTDYGIFQINSRYWCNDGKTPGAVNAAHLSCSALLQDNIADAVACAKRVVRDPQGIRAWVAWRNRCQNRDVRQYVQGCGV [C95A] | 19.2 kJ/mol | 397 kJ/mol | 0 kJ/mol | – | – |
